± gives the uncertainty stated by the source.
B1: Histone H1t, residues 44 to 112; numbered along this chain, P22492 (parent)
chain: VSKLITEALSVSQERVGMSLVALKKALAAAGYDVEKNNSRIKLSLKSLVNKGILVQTRGTGASGSFKLS

Variants of: B1
Assay: abundance fitness (aPCA) (normalised: wild type 0, dead -1); higher = more abundant; growth selection in yeast, the domain comes from the species named
Conditions: Homo sapiens

Abundance fitness of substitutions, site by site:
A26: D -0.954 ± 0.23; R -0.415 ± 0.11; C -0.14 ± 0.064; K 0.07 ± 0.049; E -0.252 ± 0.21; M -0.033 ± 0.035; H -0.167 ± 0.06; V -0.064 ± 0.075; S -0.121 ± 0.043; Q -0.381 ± 0.073; N -0.401 ± 0.051; L -0.138 ± 0.028; P -0.906 ± 0.19; T -0.106 ± 0.062; F -0.172 ± 0.03; I -0.171 ± 0.035
A22: D -0.118 ± 0.34; V -0.358 ± 0.11; Q -0.003 ± 0.16; C -0.034 ± 0.18; W -0.101 ± 0.3; L -0.393 ± 0.059; H -0.158 ± 0.23; G -0.45 ± 0.3; S 0.051 ± 0.098; E -0.801 ± 0.36; T -0.305 ± 0.22; I -0.699 ± 0.11; K -0.192 ± 0.24; Y -0.034 ± 0.1; F -0.413 ± 0.07; N -0.262 ± 0.33
S19: T -0.056 ± 0.051; M -0.153 ± 0.039; A -0.205 ± 0.071; Q -0.171 ± 0.054; V -0.11 ± 0.042; G 0.147 ± 0.061; R -0.224 ± 0.055; P -0.324 ± 0.073; L -0.111 ± 0.03; Y -0.381 ± 0.048; K -0.021 ± 0.049; D 0.08 ± 0.08; F -0.043 ± 0.039; C -0.155 ± 0.062; E -0.558 ± 0.083; W -0.145 ± 0.051; N -0.088 ± 0.085
V21: E 0.038 ± 0.14; R 0.113 ± 0.082; C -0.164 ± 0.11; H 0.061 ± 0.044; F -0.142 ± 0.026; P -0.199 ± 0.071; Y -0.207 ± 0.028; A 0.091 ± 0.1; N 0.123 ± 0.03; W -0.16 ± 0.096; S 0.018 ± 0.04; I -0.067 ± 0.028; Q 0.181 ± 0.055; D 0 ± 0.093; M -0.037 ± 0.029; L -0.062 ± 0.027
L23: W -0.541 ± 0.061; F -0.197 ± 0.038; N -0.95 ± 0.13; V -0.076 ± 0.051; H -1.05 ± 0.093; G -1.27 ± 0.2; A -0.384 ± 0.094; K -1.12 ± 0.088; S -1 ± 0.06; C -0.363 ± 0.077; R -0.942 ± 0.089; E -0.47 ± 0.14; M -0.226 ± 0.038; P -0.885 ± 0.099; D -1.22 ± 0.27; I -0.087 ± 0.05; Y -0.933 ± 0.088
G31: A -0.202 ± 0.16; Q -0.268 ± 0.039; R -0.306 ± 0.12; I -0.316 ± 0.063; P -0.434 ± 0.048; T -0.259 ± 0.042; D -0.752 ± 0.22; W -0.387 ± 0.2; M -0.224 ± 0.036; S -0.264 ± 0.042; Y -0.066 ± 0.076; N -0.357 ± 0.054; E -0.89 ± 0.3; C -0.27 ± 0.22; V -0.149 ± 0.1; H -0.366 ± 0.082; F -0.285 ± 0.067; L -0.297 ± 0.031
M18: C -0.127 ± 0.062; K 0.238 ± 0.051; T -0.006 ± 0.08; W -0.374 ± 0.049; R 0.107 ± 0.072; S 0.009 ± 0.11; E -0.108 ± 0.055; V -0.318 ± 0.039; Y -0.487 ± 0.076; D -0.359 ± 0.11; L -0.077 ± 0.034; N 0.016 ± 0.077; F -0.481 ± 0.082; I -0.37 ± 0.07; G -0.129 ± 0.045
A29: P -0.491 ± 0.087; C -0.088 ± 0.042; F -0.276 ± 0.027; T -0.04 ± 0.052; D -0.085 ± 0.053; I -0.248 ± 0.03; S -0.039 ± 0.037; W -0.323 ± 0.059; E 0.066 ± 0.053; M -0.097 ± 0.03; H -0.236 ± 0.056; L -0.255 ± 0.027; K 0.153 ± 0.03; G -0.223 ± 0.048; Q -0.081 ± 0.065; V -0.215 ± 0.038; R 0.002 ± 0.044
E14: T -0.4 ± 0.071; L -0.71 ± 0.033; Q -0.456 ± 0.087; V -0.651 ± 0.13; R -0.61 ± 0.23; Y -0.67 ± 0.056; N -0.508 ± 0.084; M -0.649 ± 0.051; S -0.274 ± 0.05
L27: F -0.221 ± 0.036; T -0.696 ± 0.059; N -0.906 ± 0.069; V -0.202 ± 0.037; M -0.159 ± 0.038; D -0.677 ± 0.091; P -1.06 ± 0.1; R -1.12 ± 0.11; A -0.506 ± 0.092; G -0.681 ± 0.1; C -0.394 ± 0.078; H -0.838 ± 0.09; S -0.746 ± 0.046; Q -1.06 ± 0.11; W -0.371 ± 0.063; I -0.116 ± 0.039; K -0.999 ± 0.063
A30: H -0.312 ± 0.09; M 0.021 ± 0.043; Y -0.266 ± 0.07; Q -0.137 ± 0.053; G -0.162 ± 0.045; R 0.051 ± 0.038; S -0.09 ± 0.04; V -0.158 ± 0.036; D -0.328 ± 0.093

From the Human Domainome abundance scans (Beltran et al. 2025)
